Assay results from the DeepSol protein solubility set.

Assay: soluble on expression in E. coli; label from the status in PepcDB or PDB records

Soluble on expression in E. coli, not soluble:
MPGALSHIRVLDLSRVLAGPWAGQILADLGAEVIKIERPGSGDDTRAWGPPFLKDAEGNDTSEAAYYLSANRNKKSVTVDFTQPEGQRIVRELAAKADILLENFKVGGLKAYGLDYESLKQVNPKLIYCSITGFGQSGPYAKRAGYDFMIQGLGGLMSLTGRADNEEGAGPVKVGVALTDILTGLYSSTAVLAALAHRDVSGIGQHIDMALLDVQVACLANQTLNYLTTGVPPRRLGNAHPNIVPYQDFPTADGDMILTVGNDSQFRKFAELADHPEWADDPRFATNKARVANREVLIPLIRQATVLHTTAEWILSLERAGVPCGPINDLAQVFADPQVQARGLRVELPHPLAGTVPQVASPIRLSETPVEYRNPPPTLGQHTDEVLETLLGLDAAALERLRDGKVI, MPGIDIVIVNWNSGNQLRECLRSIGNLVGEAEPLTVTVVDNASCDGSADGLPEPSCPLRVIRNRANLGFGRASNLGAREGSADYLLFLNPDTRLHPGALSIPLGFMESETGRHVGICGVQCLDETGGVARCCARFPTAWRLVGQALGLDRLFPRWIPPHFLGEWPHDSDRDVDQVIGAFFFVRRAVFEQLGGFDERFFVYYEDLDFALRARRAGWGSRYLAGARIFHRGGGVSRQISARRLHYLTHSKLRYARKHFAGIDAFLVSAAVLLLEPLARSAYALGRGRPGEFADTWKAFGGLYASLCRPGENGRLEHHHHHH, MPGSRTYRKVDPPDVEQLGRSSWTLLHSVAASYPAQPTDQQKGEMKQFLNIFSHIYPCNWCAKDFEKYIRENAPQVESREELGRWMCEAHNKVNKKLRKPKFDCNFWEKRWKDGWDE, MPGYYKISHSWEYRRRTCQDDVLLEAVITSDTNLNTEKTLLQWLNDKNKNKGTNTVDYKDITCWYYGGVWLHYAINNNALSLYMHSSGEDAFDSLNYCAYEIAKTFYKNHSDISILWIEHPHKRNKLKET, MPHIAHRKNGTYDQSGFNCSLFCSFVQKQGCRTMIQLTTPVENPVIRERLISYANKLFFVGSCFSLEVGSYMRQAGFRTEINPFGIMYNPLSIAGCIGRLLDPVPYQAEELFEYDGLFHSFDHHGAFSHAKKEETLQHLNDSLHVGHEALLRSDRLFFTWGTAFVYNYVSANKVVANCHKLPERLFRRQMVGIDDLLAVWIPLIERLLSSSPDRRIILTVSPVRHLRDGAVGNQQSKATLVLFCKALTGRFPEHLYYFPAYEIMMDELRDYRYYADDMTHPSSLAVSIIRERFADIFVEKDHREAMDACLKLRRRMAHRPLHPDSPDAMLFEAQTQTLVSALLRKYPDLVLDDIAGEMES, MPHQSQPGFLLPAIQHHSMQGSLPGERDVTVVGGGFGGLAAAAYLARAGASVTLLEQHDTVGGRAGVLERDGFRFDTGPSWYLMPDVFERFFDHFDHDPHDFYELTRLDPQYRVFWTDGDSATIEPNRRNAHELFESYEEGAGDALATYLDRAATNYDLAMNRVVYPDRTAFRDYASTDMLPLASRLRLFGNMDDYVSRFFDHPKLRQLLEYTLVFLGGAPHNTPALYSIMSHVDLNGNVFYPEGGIAGVVDALAELAVEQGATIETGVGVNAISGRRGEFTLATDDGTRTTDLVVNNANPAYAERELLDTGGRDHAPDYWDDQTYAPSALMFYLGVEGDVEPLAHHSLVLPPDWDGHFAQLFDDPGWPDDPAFYLSVASKTDDTVAPDGHEAVVILLPIAPGLDDTPEIRAQYRDRLLGTLAAQTGVDLRDRIVVEESACVSEFSEQFGDPGGTALGLAHTLFQTGPLRPGKRDGPDGHYYVGAYTNPGIGMPMCLISGEHVTKAVIDDDPAASGSTDPLAVPGEFNFDTPTTAD, MPKFEVPDGWTVQAFRFTLDPTEDQAKALARHFGARRKAYNWTVATLKADIQAWHASGTVTAKPSLRVLRKRWNTVKDDVCVNTETGVAWWPECSKEAYADGIAGAVEAYWNWQTSRAGKRAGKRVGFPRFKRKGRDQDRVSFTTGAMRVEPDRRHLTLPVIGTVRTHENTRRIERLIKAGRARVLAISVRRNGTRLDASVRVLVQRPQQPKVVHPGSRVGVDVGVRRLATVATADGTAIEQVENPRPLGAALRELRHVCRARSRCTKGSRRYRERTTQISRLHRRVNDVRTHHLHVLTTRLAQTHGRIVVEGLDATEMLRQKGLPGARARRRGLSDAALGTPRRHLSYKTVWYGSALVVADRWFPSSKTCHACRHVQDIGWDEQWQCDRCSVVHQRDDCAAINLARYEETSSIVGPVGAAVKRGADRKTGPRPAGGCEARKGSSPKAAEQPRDGVQVA, MPKFVVIELNDDAATIDLLSYCVKKNFERVSLLTRLEDHPYLRDDQDVVQDDTQSQGTDGMLLQLNDEERQRLMKMISTPGPQTLSMERIQMAPGQGQHILQQHQIPSTSSYTNNSFIYIKSDPQYKDEPQQQSNQFDATVNSVAHGQAGLSTLEMFACNGSPNGGDVLRRKTPSRKAEDSIKATCKVCGHDVMYSPQRTWNLMRHVWIMHQSSKPNQCSICGYSHIKPYVRKHIESQHKHDSNATIIDLKSPELEAEWSQLLDQCFGVTYRKWKHHKEDTQHTVFAAGDEDYGHEHHFSPEEDVMTTL, MPKIKRVKKGKKLKPNVMIFCEGETEEAYLRLIKRKYSAVNIKSKLKVKTCRRQGEALVEYAVSCIRSMGKAERDNYDLFYVMYDKDEQTTESIENAVRCAQRHRPEIKTIFSNECFELWLLLHFEEVNRYMTRENLYGRLEKVLHLKDSYRNFKGAEVCKYLEEKVAIAFQNTNKNWLSPLEEMKINENPYTNFPKELCEMLAQKEVDF

Soluble on expression in E. coli, soluble:
MPFTLGQRWISDTESELGLGTVVAVDARTVTLLFPSTGENRLYARSDSPVTRVMFNPGDTITSHDGWQMQVEEVKEENGLLTYIGTRLDTEESGVALREVFLDSKLVFSKPQDRLFAGQIDRMDRFALRYRARKYSSEQFRMPYSGLRGQRTSLIPHQLNIAHDVGRRHAPRVLLADEVGLGKTIEAGMILHQQLLSGAAERVLIIVPETLQHQWLVEMLRRFNLRFALFDDERYAEAQHDAYNPFDTEQLVICSLDFARRSKQRLEHLCEAEWDLLVVDEAHHLVWSEDAPSREYQAIEQLAEHVPGVLLLTATPEQLGMESHFARLRLLDPNRFHDFAQFVEEQKNYRPVADAVAMLLAGNKLSNDELNMLGEMIGEQDIEPLLQAANSDSEDAQSARQELVSMLMDRHGTSRVLFRNTRNGVKGFPKRELHTIKLPLPTQYQTAIKVSGIMGARKSAEDRARDMLYPERIYQEFEGDNATWWNFDPRVEWLMGYLTSHRSQKVLVICAKAATALQLEQVLREREGIRAAVFHEGMSIIERDRAAAWFAEEDTGAQVLLCSEIGSEGRNFQFASHMVMFDLPFNPDLLEQRIGRLDRIGQAHDIQIHVPYLEKTAQSVLVRWYHEGLDAFEHTCPTGRTIYDSVYNDLINYLASPDQTEGFDDLIKNCREQHEALKAQLEQGRDRLLEIHSNGGEKAQALAESIEEQDDDTNLIAFAMNLFDIIGINQDDRGDNMIVLTPSDHMLVPDFPGLSEDGITITFDREVALAREDAQFITWEHPLIRNGLDLILSGDTGSSTISLLKNKALPVGTLLVELIYVVEAQAPKQLQLNRFLPPTPVRMLLDKNGNNLAAQVEFETFNRQLNAVNRHTGSKLVNAVQQDVHAILQLGEAQIEKSARALIDAARNEADEKLSAELSRLEALRAVNPNIRDDELTAIESNRQQVMESLDQAGWRLDALRLIVVTHQ, MPGKLLWGDIMELEAPLEESESQKKERQKSDRRKSRHHYDSDEKSETRENGVTDDLDAPKAKKSKMKEKLNGDTEEGFNRLSDEFSKSHKSRRKDLPNGDIDEYEKKSKRVSSLDTSTHKSSDNKLEETLTREQKEGAFSNFPISEETIKLLKGRGVTYLFPIQVKTFGPVYEGKDLIAQARTGTGKTFSFAIPLIERLQRNQETIKKSRSPKVLVLAPTRELANQVAKDFKDITRKLSVACFYGGTSYQSQINHIRNGIDILVGTPGRIKDHLQSGRLDLSKLRHVVLDEVDQMLDLGFAEQVEDIIHESYKTDSEDNPQTLLFSATCPQWVYKVAKKYMKSRYEQVDLVGKMTQKAATTVEHLAIQCHWSQRPAVIGDVLQVYSGSEGRAIIFCETKKNVTEMAMNPHIKQNAQCLHGDIAQSQREITLKGFREGSFKVLVATNVAARGLDIPEVDLVIQSSPPQDVESYIHRSGRTGRAGRTGICICFYQPRERGQLRYVEQKAGITFKRVGVPSTMDLVKSKSMDAIRSLASVSYAAVDFFRPSAQRLIEEKGAVDALAAALAHISGASSFEPRSLITSDKGFVTMTLESLEEIQDVSCAWKELNRKLSSNAVSQITRMCLLKGNMGVCFDVPTTESERLQAEWHDSDWILSVPAKLPEIEEYYDGNTSSNSRQRSGWSSGRSGRSGRSGGRSGGRSGRQSRQGSRSGSRQDGRRRSGNRNRSRSGGHKRSFD, MPGQQATKHESLLDQLSLKGKVVVVTGASGPKGMGIEAARGCAEMGAAVAITYASRAQGAEENVKELEKTYGIKAKAYKCQVDSYESCEKLVKDVVADFGQIDAFIANAGATADSGILDGSVEAWNHVVQVDLNGTFHCAKAVGHHFKERGTGSLVITASMSGHIANFPQEQTSYNVAKAGCIHMARSLANEWRDFARVNSISPGYIDTGLSDFVPKETQQLWHSMIPMGRDGLAKELKGAYVYFASDASTYTTGADLLIDGGYTTR, MPGSPRPAPSWVLLLRLLALLRPPGLGEACSCAPAHPQQHICHSALVIRAKISSEKVVPASADPADTEKMLRYEIKQIKMFKGFEKVKDVQYIYTPFDSSLCGVKLEANSQKQYLLTGQVLSDGKVFIHLCNYIEPWEDLSLVQRESLNHHYHLNCGCQITTCYTVPCTISAPNECLWTDWLLERKLYGYQAQHYVCMKHVDGTCSWYRGHLPLRKEFVDIVQP, MPGSTGKTRTAEAGETARRDQDSNSYVYGVVPADVELDPEARGVGDPPGRISLVRHGEIAALVSDIVLDRPLGRPDDLLAHQRLLDATAAEVPVLPFRFGAVVSDSEAVVEELLGPNHDDFLAALKELEGRAEYVVKGRYVERVVIGEVLAEDPEATRLREEIRGRPEEATWDARIQLGQMIGEAVAAKRDADTAALVDALAPKCAGVVVREPTHEQDAVHVAVLVDTDRQAEFEKILDEFGERWAGRIDLRLLGPLAPYDFVMAPGQGG, MPIKIPDNLPAKEILTKENIFVMAESRAYSQDIRPLKIVILNLMPIKQTTETQLLRLLGNTPLQVEVSFMYTDTHISKNTSYDHLQTFYQTIDEVKQKKFDGMIITGAPIETLPYDEVDYWNELKQIMEWSKTNVTSTLHICWGAQAGLFYHYGVEKVPLPEKQFGVYPHKINVPNVKLLRGFDDEFYVPHSRHTDINKAQIEAHPDLEILSESEQAGVYIVASKDGKQIFVTGHSEYDACTLQQEYERDRARGLNIQVPENYFPNDDATRKPLLRWRAHSYLLFSNWLNYYVYQETPYDLSRMAGDPLEHHHHHH, MPILEKAPQKMPVKASSWEELDLPKLPVPPLQQTLATYLQCMQHLVPEEQFRKSQAIVKRFGAPGGLGETLQEKLLERQEKTANWVSEYWLNDMYLNNRLALPVNSSPAVIFARQHFQDTNDQLRFAACLISGVLSYKTLLDSHSLPTDWAKGQLSGQPLCMKQYYRLFSSYRLPGHTQDTLVAQKSSIMPEPEHVIVACCNQFFVLDVVINFRRLSEGDLFTQLRKIVKMASNEDERLPPIGLLTSDGRSEWAKARTVLLKDSTNRDSLDMIERCICLVCLDGPGTGELSDTHRALQLLHGGGCSLNGANRWYDKSLQFVVGRDGTCGVVCEHSPFDGIVLVQCTEHLLKHMMTSNKKLVRADSVSELPAPRRLRWKCSPETQGHLASSAEKLQRIVKNLDFIVYKFDNYGKTFIKKQKYSPDGFIQVALQLAYYRLYQRLVPTYESASIRRFQEGRVDNIRSATPEALAFVQAMTDHKAAMPASEKLQLLQTAMQAQTEYTVMAITGMAIDNHLLALRELARDLCKEPPEMFMDETYLMSNRFVLSTSQVPTTMEMFCCYGPVVPNGYGACYNPQPEAITFCISSFHSCKETSSVEFAEAVGASLVDMRDLCSSRQPADSKPPAPKEKARGPTKPSNLDSSH
